Usually Kd stands for the free concentration of one partner at which half of the binding sites on the other are occupied at equilibrium, for simple one-to-one binding.

This is an account of results in PMC10287707.

Data set [1] has as its target T1, TIA1 RRM2_3 (human, UniProt P31483-2 93-274).
T1 sequence: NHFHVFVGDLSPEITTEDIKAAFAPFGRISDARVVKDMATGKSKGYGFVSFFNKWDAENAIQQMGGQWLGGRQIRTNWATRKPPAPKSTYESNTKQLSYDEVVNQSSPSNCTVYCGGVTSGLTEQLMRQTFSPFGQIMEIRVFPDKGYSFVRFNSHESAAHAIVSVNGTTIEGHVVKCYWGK
Briefly: EMSA; EMSA: 10 mM sodium phosphate pH 6.5, 50 mM NaCl, 1 mM DTT, 1 U/ul SUPERase-In, room temperature 20 min, native 1.2% agarose; RNA annealed in 10 mM Tris-HCl pH 7.5, 100 mM KCl. The following applies: protein: recombinant, tags: His6-SUMO removed by SUMO protease, label: 5'-Cy3, hairpin. In general terms: In EMSA bound probe runs differently from free probe, usually more slowly.

Data set [2] deals with T1, TIA1 RRM2_3. The description is as above. The following applies: protein: recombinant; tags: His6-SUMO removed by SUMO protease; label: 5'-Cy3; hairpin.
In data set [3] the target is T2, TIA1 RRM2-3 (Homo sapiens, UniProt P31483-2 93-274).
T2 sequence: T1 sequence
Briefly: EMSA; 10 mM sodium phosphate pH 6.5, 50 mM NaCl, 1 mM DTT; room temperature, 20 min; 1.2% agarose; protein 0.1-10 uM; RNA annealed in 10 mM Tris pH 7.5, 100 mM KCl. The following applies: tags: His6-SUMO (cleaved; BamHI linker Ser or Gly-Ser may stay); label: 5' Cy3.

For the molecule UGUUCCCCCCCCGAACUUUAA (structured_RNA) [SL3-HP-C7], the Kd in data set [1] turned out to be 1950 ± 440 nM.

Take UGUUCUCUGAACGAACUUUAA (structured_RNA) [SL3 A68G]: in data set [2], the binding signal worked out at 0.09 ± 0.1 kcal/mol ddG vs WT SL3. The Kd in data set [3] was 900 ± 110 nM.

As to UGUUCUCUAAACGAACUCUAA (structured_RNA) [SL3 U77C], the binding signal in data set [2] came out at 0.29 ± 0.11 kcal/mol ddG vs WT SL3. The Kd in data set [3] stood at 1280 ± 180 nM.

Take UGUUCUCUAAACGAACCCCAA (structured_RNA) [SL3-TL-C3]: in data set [3], the Kd amounted to 2220 ± 360 nM.

As for UGUUCUCUAAACGAACUAUAA (structured_RNA) [SL3 U77A], in data set [2], the binding signal stood at 1.05 ± 0.2 kcal/mol ddG vs WT SL3. Besides, in data set [3], binding was characterised by a dissociation constant (Kd) of 4660 ± 1540 nM.

On to UGUUCUCCAAACGAACUUUAA (structured_RNA) [SL3 U67C], for which the binding signal in data set [2] stood at 0.85 ± 0.21 kcal/mol ddG vs WT SL3. Besides, the Kd in data set [3] is 3340 ± 1040 nM.

For the molecule UGUUCUAAGAACUUUAA (structured_RNA) [SL3-HP3], in data set [1] (3-nt loop), the Kd is 3870 ± 1060 nM.

UGUUCUCUAAACGAACGGGAA (structured_RNA) [SL3-TL-G3] showed a Kd in data set [3] of 2770 ± 630 nM.

For UGGGCUCUAAACGCCCUUUAA (structured_RNA) [SL3-GC], in data set [1], the Kd was 5650 ± 1700 nM.

Take UGUUCUCUAAACGAACUUCAA (structured_RNA) [SL3 U78C]: the Kd in data set [1] and in data set [3] was 1340 ± 190 nM in each case.

UGUUCUUUUUUUGAACUUUAA (structured_RNA) [SL3-HP-U7]: the equilibrium dissociation constant (Kd) in data set [1] turned out to be 540 ± 30 nM.

Consider UGUUCUCUCAACGAACUUUAA (structured_RNA) [SL3 A68C], for which the binding signal in data set [2] was -0.04 ± 0.1 kcal/mol ddG vs WT SL3. The molecule further returned a Kd in data set [3] of 730 ± 80 nM.

Consider UGUUCUCUUAACGAACUUUAA (structured_RNA) [SL3 A68U], for which the Kd in data set [1] is 460 ± 50 nM.

Take UGUUCUCUAAACGAACU (structured_RNA) [SL3-TL1]: in data set [1] (1-nt 3' tail), the Kd was 2860 ± 550 nM.

Consider UGUUCUCUAAACGAACUUAAA (structured_RNA) [SL3 U78A], for which the binding signal in data set [2] came out at 1.34 ± 0.19 kcal/mol ddG vs WT SL3. For the same molecule, the Kd in data set [3] turned out to be 7540 ± 2120 nM.

For the molecule UGUUCUCUAAACGAACUGUAA (structured_RNA) [SL3 U77G], in data set [2], the binding signal stood at 1.18 ± 0.17 kcal/mol ddG vs WT SL3. For the same molecule, the Kd in data set [3] was 5770 ± 1460 nM.

For the molecule UGUUCUCUAAACGAACGUUAA (structured_RNA) [SL3 U76G], the binding signal in data set [2] is 0.94 ± 0.21 kcal/mol ddG vs WT SL3. The same molecule had a Kd in data set [3] of 3870 ± 1250 nM.

For UGUUCUCUACACGAACUUUAA (structured_RNA) [SL3 A69C], the Kd in data set [1] was 420 ± 40 nM.

As for UGUUCUCUAAACGAACAUUAA (structured_RNA) [SL3 U76A], the binding signal in data set [2] amounted to 1.22 ± 0.2 kcal/mol ddG vs WT SL3. This molecule gave a Kd in data set [3] of 6160 ± 1850 nM.
